Results from article PMC2120604.

Target: rat liver chromatin fragments (rat (endogenous in liver))
Assay: radioligand binding

Kd	Molecule
300 nM	GST-lamin C tail (residues 389-572) (from UniProt P02545-2 389-572) (domain or fragment)
230 nM	GST-lamin B2 tail (residues 382-596) (domain or fragment, 125I-labelled (Iodogen) where used as the radiolabelled ligand) LSPSPSSRITISRATSSSSSSSGVGMSVGQGRGKRRRLETEDTSGSPSRASRVSSGSRLAQQTVATGVVNIDEVDPEGRFVRLKNSSDKDQSLGNWRIKRQVLEGEDIAYKFTPKYVLRAGQTVTVWAAGAGATHSPPSTLVWKSQTNWGPGESFRTALVSADGEEVAVKAAKHSSVQGRENGEEEEEEEAEFGEEDLFHQQGDPRTTSRGCRLM
120 nM	GST-lamin B1 tail (residues 391-588) (domain or fragment, 125I-labelled (Iodogen) where used as the radiolabelled ligand) LSPSPSSRVTVSRASSSRSVRTTRGKRKRVDVEESEASSSVSISHSASATGNVCIEEIDVDGKFIRLKNTSEQDQPMGGWEMIRKIGDTSVSYKYTSRYVLKAGQTVTVWAANAGVTASPPTDLIWKNQNSWGTGEDVKVILKNSQGEEVAQRSTVFKTTIPEEEEEEEEEPIGVAVEEERFHQQGAPRASNKSCAIM
